Two substances from paper PMC5777259 can be followed below.

The target in experiment [1] is acto-NM-2B (filamentous β-actin with NM-2B–HMM) (human) (UniProt P60709). In words: co-sedimentation; 6:1 acto–Tpm mixture (6 μM β-actin, 1 μM Tpm) with 0–16 μM NM-2B–HMM, 30 min; 20 mM MOPS pH 7.0, 5 mM MgCl2, 50 mM KCl; pelleted 20 min at 100,000 × g; Hill fit.
The target of experiment [2] is filamentous β-actin (human) (UniProt P60709). Briefly: co-sedimentation; 10 μM β-actin preincubated with 0–10 μM Tpm for 30 min at room temperature; 20 mM MOPS pH 7.0, 5 mM MgCl2, 100 mM KCl; SDS-PAGE densitometry of supernatant and pellet; Hill fit, apparent constants (K50%).
The target of experiment [3] is Tpm1.12-enveloped filamentous β-actin (human | rat) (UniProt P60709). In words: stopped-flow light scattering; 4 μM NM-2B0 mixed with 0.5–4 μM bare actin or actin-Tpm complex, light scattering at 405 nm; 20 °C; 20 mM MOPS pH 7.0, 100 mM KCl, 5 mM MgCl2; no nucleotide; k+A from the slope, k−A from the y intercept, KA = k−A/k+A.
Experiment [4] concerns the target Tpm3.1-enveloped filamentous β-actin (human) (UniProt P60709). The description is as above.

Bounds are passed on as bounds.

With Tpm1.8cy (b.–.b.d) (natural protein), the figures for the Kd in experiment [1] and in experiment [2] were less than 100 nM and 100 nM, respectively.

Consider “single-headed construct NM-2B0 (motor domain of human NM-2B0, residues 1–782, two Dictyostelium discoideum α-actinin repeats, C-terminal octahistidine tag) (from UniProt P35580 1-782) (domain or fragment)”, for which the Kd is 80 nM in experiment [3] and 30 nM in experiment [4].
